Laboratory results as given in US20150086555A1.

B1: TCN-504 (3251_K17) (antibody, V domains shown)
VH: QVQLQESGPGLVKPSETLSLTCAVSGVSISNIDFYWGWIRQPPGKGLEWIGNIYYTGITFYNPSLSSRVAISIDTSKNQFSLTLTSVTAADTAMYYCARHYGDSEAINDAFDIWGQGTMLTVSS
VL: EIVMTQSPATLSVSPGERATLSCRASQSVGNSLAWYQQRPGQAPRLLIYGASTRATGIPPRFSGSGSGTEFTLTISSLQTEDFAVYYCQQYINWRPLSFGGGTKVEIK
B2: TCN-523 (5248_A17) (antibody, V domains shown)
VH: QVQLVQSGAEVKKPGSSVKVSCKASGGSFSNYAFSWVRQAPGQGLEWMGGTIPLLGTTNYAQKFQGRVTISADQFTSTAYMELGSLRSEDTAVYYCTRRKMTTAFDSWGQGTLVTVSS
VL: QPVLTQPPSASASLGASVTLTCTLSSAYSNYKVDWYQQRPGKGPRFVMRVGTGGIVGSKGDGIPDRFSVLGSGLNRYLTIKNIQEEDESDYHCGADHGSGSNFVSPYVFGGGTKLTVL
B3: TCN-530 (5248_H10a) (antibody, V domains shown)
VH: QVQLVQSGAEVRKPGSSVKVSCKASGGPFMSYAIGWVRQAPGQGLEWMGGINPVFGRPHYAQKFQGRVTIATDDSTKTSYMELSSLTSEDTGMYYCASRYSRSSPGTFESWGQGTLVTVSS
VL: EIVMTQFPATLSVSPGERVTLSCRASQSVSNNLAWYQQKPGQPPRLLIYDASTRATGVPAKFSGTGSGTEFTLSISSLQSEDFAVYYCQQYHNWPPSYSFGLGTKLEIK
B4: TCN-535 (5246_P19) (antibody, V domains shown)
VH: QVQLVQSGSEVKKPGTSVKVSCTASGSVFTNYGISWVRQAPGQGLEWMGGIIPLFGAAKYAQKFQGRVTITADESTKTVYMELSRLTSKDTAIYFCAKAPRVYEYYFDQWGQGTPVTVSS
VL: EIVLTQSPGTLSLSPGERATLSCRASQSVSSSQLAWYQQKPGQAPRLIIYGASTRATGIPDRFSGSGSGTDFTLTIGRLEPEDFAVFFCQQYSTSPPTFGQGTKVDFK
B5: TCN-534 (5249_B02) (antibody, V domains shown)
VH: QVQLVQSGAEVKKPGSSVKVSCRESGGTFNGYTITWVRQAPGQGLEWMGGIIPMMGTVNYAQKLQGRVTITTDYFTKTAYMDLNNLRSEDTAMYYCVKIRYTGQQLLWGQGTLVTVSS
VL: DIQMTQSPSTLSASIGDRVTITCRASQSIASWLAWYQQKPGKAPKLLIYEAVNLESGVPSRFSGSGSGTDFTLTISSLQPDDFATYFCQHYGTISQTFGGGTKVEIK
B6: TCN-537 (3194_D21) (antibody, V domains shown)
VH: QVQLQQWGSGLLKPSETLSLTCAVYGGSFRDDYWTWIRQPPGKGLEWIGEINHSGRTNYNPSLKSRVTISVDTSLKQFSLKVISVTAADTAVYYCARGTSHVSRYFDWLPPTNWFDPWGQGTQVTVSS
VL: DIVLTQSPGTLSLSPGERATLSCRASQSVSSSYLAWYQQKPGQAPRLVMYGAATRATGIPDRFSGSGSGPDFTLTISRLEPEDFAMYYCQQYGNSPITFGQGTRLEIK
B7: TCN-538 (3206_O17) (antibody, V domains shown)
VH: QITLKESGPTLVKPTQTLTLTCVFSGFSLSITGVRVGWIRQPPGKALEWLALISWDDEKHYSPSLQSRLTITKDTSKNQVVLTMTNLDPVDTATYYCARSTDRGHVLRYFGWMLPGDAFDVWGQGTMVTVSS
VL: DIVMTQSPDFLPVSLGERATINCKSSQRVLYSSNNKNYLAWYQLKPGQPPKLIIYWASTRESGVPDRFSGSGSGTEFTLTISSLQAEDVAVYYCQQYYSRPYTFGQGTKLEIK
B8: TCN-540 (5060_F05) (antibody, V domains shown)
VH: QVQLVQSGGGVVQPGRSLRLSCAASGFTFSSYAMHWVRQAPGKGLEWVAIISYDGNDQYYTDSVKGRFTISRDSSKVYLQMHRLRPEDTAVYYCAKEFETSGYFHGSFDYWGQGILVTVSS
VL: QSALTQPASVSGSPGQSITISCTGTSSDVGGYNYVSWYQQHPGKAPKLLIYEVTNWPSGVSNRFSGSKSGNTASLTISGLQAEDEADYYCSSYAGSSTWVFGGGTRVTVL
B9: TCN-563 (5237_B21) (antibody, V domains shown)
VH: QVQLAQSGAEVKRPGSSVKVSCTASGGIFRKNAISWVRQAPGQGLEWMGGIIAVFNTANYAQKFQGRVKITADESGNTAYMELSSLRSDDTAVYYCASHPKYFYGSGSYPDFWGQGTLVTVSS
VL: QSALTQPRSVSGSPGQSVTISCTGSSSDVGASNSVSWYQQHPGKAPKLVIYDVTERPSGVPHRFSGSKSGNTASLTVSGLQPEDEADYFCCAYGGKYLVVFGGGTKVTVL
B10: TCN-536 (5095_N01) (antibody, V domains shown)
VH: QVQLQQWGAGLLKPSETLSLTCAVYGGSFSVSGYYWSWIRQPPGRGLEWIGEISHGGSTNYNPSLKSRVTISVDTTKNQFSLRLSSVTAADTAVYYCARGTDPDTEVYCRVGNCAAFDYWGQGSLVTVSS
VL: EIILAQSPGTLSLSPGERATLSCRASQFVSTRSLAWYQQRPGQAPRLLIYGASSRATGIPDRFSGSGSGTDFTLTISRLEPEDFAVYYCQHYGYSPRYAFGQGSKVEIK
B11: TCN-564 (5256_A17b) (antibody, V domains shown)
VH: QVQLVQSGADVKKPGSSVTVSCKASGGSFSNYGINWVRQAPGQGLEWMGGIIPLINAPNYAPKFQGRVTITADMFSNIVSLQLTSLRTDDTAVYYCARRKMTTAIDYWGQGTLVTVSS
VL: QPVLSQPPSASASLGASVTLTCTLSSGFDNYQVAWYQQRPGKGPRFVMRVGNGGNVASKGDGIPDRFSVSGSGLNRYLTIKNIQEDDESDYYCGADHGSGNNFVSPYVFGGGTKLTVL
B12: TCN-531 (5091_H13) (antibody, V domains shown)
VH: EVQLVESGGDLVQPGRSLKLSCTGSGFTFGDYGVTWVRQAPGKGLEWVGFIRTRPWGGTADTAASVKGRFTISRDDSKSLAYLQMNSLKTEDTAVYYCCRDAPPNVEVASMTNWYFDLWGRGTLVTVSS
VL: DIQLTQSPSSLSASVGDRVTITCRASQGILNCLAWYQQKPGKVPNLLMYAASTLQSGVPSRFSGSGFGTDFTLTISSLQPEDVATYYCQTYGGVSTFGGGTKVEIR

What follows are binders tested against recombinant soluble homotrimeric HA, A/common magpie/Hong Kong/5052/07 H5N1 (Influenza A virus A/common magpie/Hong Kong/5052/2007(H5N1)) (assay: microarray, transfection SN IgG, trimeric HA). Settings: remark: other sources report otherwise.

Going from B1 to B2, the Trimeric HA Binding: RLU falls from 37300 RLU to 33900 RLU.

Each binder was assayed against T1, recombinant soluble homotrimeric HA of A/common magpie/Hong Kong/5052/07 (H5N1) (Influenza A virus A/common magpie/Hong Kong/5052/2007(H5N1)) (assay: HA microarray, BCC supernatant). Settings: remark: other sources report otherwise.

Compared with B2, B3 is lower in Trimeric HA Binding: RLU: 45800 RLU for the first, 42500 RLU for the second.

Going from B4 to B5, the Trimeric HA Binding: RLU falls from 45900 RLU to 32500 RLU.

B6 and B7 are the same in Trimeric HA Binding: RLU: 18700 RLU for the first, 18700 RLU for the second.

First: B8
Second: B9
The Trimeric HA Binding: RLU of the first is lower: 113 RLU for the first, 27500 RLU for the second.

These binders were tested against T1, recombinant soluble homotrimeric HA of … (assay: trimeric HA microarray, transfection supernatant set 4). Settings: remark: other sources report otherwise.

First: B1
Second: B2
The Trimeric HA Binding: RLU of the first is higher: 8680 RLU for the first, 2130 RLU for the second.

Going from B4 to B5, the Trimeric HA Binding: RLU falls from 477 RLU to 127 RLU.

B10 showed a Trimeric HA Binding: RLU of 27 RLU.

What follows are binders tested against T1, recombinant soluble homotrimeric HA of … (assay: HA microarray, control antibody). Settings: remark: other sources report otherwise.

B1 gave a Trimeric HA Binding: RLU of 17000 RLU.

What follows are binders tested against T1, recombinant soluble homotrimeric HA of … (assay: trimeric HA microarray, transfection supernatant set 5). Settings: remark: other sources report otherwise.

Compared with B6, B7 is higher in Trimeric HA Binding: RLU: 2070 RLU for the first, 3140 RLU for the second.

Binder B8 has a Trimeric HA Binding: RLU of 1800 RLU.

What follows are binders tested against T1, recombinant soluble homotrimeric HA of … (assay: not given). Settings: remark: other sources report otherwise.

Compared with B9, B11 is higher in Trimeric HA Binding: RLU: 20000 RLU for the first, 20800 RLU for the second.

What follows are binders tested against T1, recombinant soluble homotrimeric HA of … (assay: trimeric HA microarray, transfection supernatant set 3). Settings: remark: other sources report otherwise.

Compared with B1, B2 is lower in Trimeric HA Binding: RLU: 17800 RLU for the first, 640 RLU for the second.

Compared with B12, B3 is higher in Trimeric HA Binding: RLU: 37 RLU for the first, 5580 RLU for the second.

These binders were tested against T1, recombinant soluble homotrimeric HA of … (assay: trimeric HA microarray, transfection supernatant set 1). Settings: remark: other sources report otherwise.

Compared with B1, B2 is lower in Trimeric HA Binding: RLU: 29700 RLU for the first, 6240 RLU for the second.

What follows are binders tested against T1, recombinant soluble homotrimeric HA of … (assay: trimeric HA microarray, transfection supernatant set 2). Settings: remark: other sources report otherwise.

Compared with B1, B2 is lower in Trimeric HA Binding: RLU: 16800 RLU for the first, 7210 RLU for the second.

B9 was tested, and the Trimeric HA Binding: RLU was 52800 RLU.

Each binder was assayed against recombinant homotrimeric HA A/common magpie/Hong Kong/5052/07 H5N1 (Influenza A virus A/common magpie/Hong Kong/5052/2007(H5N1)) (assay: protein microarray, purified IgG, trimeric HA). Settings: remark: other sources report otherwise.

Going from B2 to B12, the Trimeric HA Binding: RLU falls from 20900 RLU to 674 RLU.

First: B3
Second: B4
The Trimeric HA Binding: RLU of the first is lower: 10300 RLU for the first, 20400 RLU for the second.

Compared with B5, B10 is lower in Trimeric HA Binding: RLU: 16500 RLU for the first, 794 RLU for the second.

Compared with B6, B7 is higher in Trimeric HA Binding: RLU: 810 RLU for the first, 5140 RLU for the second.

B8 was tested, and the Trimeric HA Binding: RLU was 799 RLU.
